Reference: patent publication US20230240988A1, “FLUID GEL COMPOSITIONS” (The University of Birmingham, priority 2020, published 2023)

How the values were obtained:
[1] = Release assay of active agents from PEG-DA fluid gel (trans-well, UV/Vis); type: physicochemical; conditions: 3% v/v PEG-DA fluid gel (500 rpm), PBS 37° C., 5 hrs
Method: • Active amounts: […] • Standard concentrations of active in PBS were prepared. • Standards were pipetted into a quartz cuvette (1 mm pathlength). • […] spectroscopy was used to measure absorbance between 200 and 700 nm wavelength. • Curves were plotted and used to determine standard curves which were used to determine concentrations. • 0.5 ml PBS was added to the well of a 24 well plate. • The PBS was incubated at 37° C. to equilibrate. 0.1 ml of the fluid gel containing active was placed in a trans-well insert. • The trans-well insert was placed into a well containing PBS. • After a given time period the trans-well insert was removed and placed in a fresh well of PBS. • The release media was then removed and analysed using […] spectroscopy. Concentrations were derived from the standard curves and cumulative release plotted as a function of time.

fibrin gel = assay: Matrix breakdown assay; type: biochemical; conditions: 60° C.; images at various timepoints
Method: • Add proteinase K (10 mg) to PBS to make a total volume of 1 ml. • Mix well on a vortex mixer until dissolved.
• Add 0.9 ml of 3% v/v PEG-DA fluid gel prepared according to Example 5.3 to an Eppendorf. • To each gel add 0.1 ml of active in PBS. • Mix well using a vortex mixer. • Refrigerate for 24 hours before testing.
0.5 ml of fibrin gel (8.5 mg/ml) was formed in the wells of a 24 well plate. • 0.5 ml of PBS was added to each well. • 0.1 ml of fluid gel containing active was added to a trans-well insert and placed above the fibrin gel. • Samples were incubated at 60° C. to activate the proteinase K. • Images were taken at various timepoints and compared to (a) the control wells containing only fibrin gel+PBS; and (b) wells containing fibrin gel+proteinase k (no fluid gel carrier).

B1: Proteinase K: extracellular matrix remodelling agent, proteinase (protein, UniProt P06873 106-384, looked up)
Proteinase K: AAQTNAPWGLARISSTSPGTSTYYYDESAGQGSCVYVIDTGIEASHPEFEGRAQMVKTYYYSSRDGNGHGTHCAGTVGSRTYGVAKKTQLFGVKVLDDNGSGQYSTIIAGMDFVASDKNNRNCPKGVVASLSLGGGYSSSVNSAAARLQSSGVMVAVAAGNNNADARNYSPASEPSVCTVGASDRYDRRSSFSNYGSVLDIFGPGTSILSTWIGGSTRSISGTSMATPHVAGLAAYLMTLGKTTAASACRYIADTANKGDLSNIPFGTVNLLAYNNYQA
Q: With B1 as the molecule, how does the “release of active agent from fluid gel” value [1] read?
A: able to release

Q: And the “fibrin gel break down” value (fibrin gel)?
A: faster
